One test deals with T1, IL-7Rα subunit (Homo sapiens, UniProt P16871).
T1 sequence (P16871 21-459): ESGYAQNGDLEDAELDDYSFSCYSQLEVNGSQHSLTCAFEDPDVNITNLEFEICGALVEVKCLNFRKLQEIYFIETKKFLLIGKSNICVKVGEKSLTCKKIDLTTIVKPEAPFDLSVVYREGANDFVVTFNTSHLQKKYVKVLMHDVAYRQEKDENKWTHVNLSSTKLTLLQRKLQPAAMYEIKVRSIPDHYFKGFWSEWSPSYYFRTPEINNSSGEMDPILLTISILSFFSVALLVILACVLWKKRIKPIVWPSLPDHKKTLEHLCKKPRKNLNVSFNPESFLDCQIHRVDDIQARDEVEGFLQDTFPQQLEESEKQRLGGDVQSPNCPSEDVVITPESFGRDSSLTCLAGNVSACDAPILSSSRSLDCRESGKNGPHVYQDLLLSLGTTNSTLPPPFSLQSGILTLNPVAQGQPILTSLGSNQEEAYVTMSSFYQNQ
The experiment in a line: Competitive binding assays, unique binding site on the IL-7Rα subunit. Particulars: against IL-7Rα ligands SEQ ID NO: 455-459. The source says: The unique binding site of the IL-7Rα subunit for these IL-7Rα ligands can be characterized using competitive binding assays as described, for example, in Example 12.

The target of a further test is T2, IL-7Rγc subunit (Homo sapiens, UniProt P31785).
T2 sequence (P31785 23-369): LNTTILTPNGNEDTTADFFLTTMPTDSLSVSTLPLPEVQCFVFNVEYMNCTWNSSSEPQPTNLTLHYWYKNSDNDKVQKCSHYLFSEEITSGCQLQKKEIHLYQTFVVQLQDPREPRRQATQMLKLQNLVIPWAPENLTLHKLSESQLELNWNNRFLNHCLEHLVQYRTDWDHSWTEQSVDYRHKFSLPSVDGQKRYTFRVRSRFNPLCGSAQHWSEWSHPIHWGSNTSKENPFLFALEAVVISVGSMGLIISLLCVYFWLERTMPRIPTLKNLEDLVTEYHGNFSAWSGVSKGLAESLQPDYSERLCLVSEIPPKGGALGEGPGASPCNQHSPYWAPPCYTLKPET
Nature of the test: Competitive binding assays, specific binding site on the IL-7Rγc subunit. Particulars: against Rγc ligands SEQ ID NO: 461-465. An excerpt:
The specific binding site of the IL-7Rγc subunit for these Rγc ligands can be characterized using competitive binding assays.

Test [1] has as its target T3, hu-IL-7Rγc subunit (human), P31785.
T3 chain: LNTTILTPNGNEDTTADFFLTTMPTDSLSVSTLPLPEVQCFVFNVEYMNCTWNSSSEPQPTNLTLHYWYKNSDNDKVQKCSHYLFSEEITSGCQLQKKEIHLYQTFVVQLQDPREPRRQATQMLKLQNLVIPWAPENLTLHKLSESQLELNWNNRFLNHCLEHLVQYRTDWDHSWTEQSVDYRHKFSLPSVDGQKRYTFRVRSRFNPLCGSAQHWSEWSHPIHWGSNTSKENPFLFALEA
The experiment in a line: phage ELISA competition assay.

For test [2], the target named is T4, hu-IL-7Rα subunit (human, UniProt P16871 21-239, limits assumed).
T4 construct: also called human interleukin-7 receptor subunit α; CD127
T4 sequence (looked up): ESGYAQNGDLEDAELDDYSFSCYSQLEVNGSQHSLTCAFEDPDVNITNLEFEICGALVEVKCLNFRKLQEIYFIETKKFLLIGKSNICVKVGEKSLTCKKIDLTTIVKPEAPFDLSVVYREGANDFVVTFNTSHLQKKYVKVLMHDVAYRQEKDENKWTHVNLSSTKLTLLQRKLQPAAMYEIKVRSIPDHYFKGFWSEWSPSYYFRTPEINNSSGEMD
The experiment in a line: not stated; binding to a unique binding site on the IL-7Rα subunit.

The target of test [3] is T3, hu-IL-7Rγc subunit (human), P31785. The experiment in a line: not stated; binding to the specific binding site on the IL-7Rγc subunit.
Test [4] has as its target T5, hu-IL-7Rα subunit (human), P16871.
T5 chain: T4 sequence (looked up)
The experiment in a line: not stated; binding to a unique binding site on the IL-7Rα subunit.

For test [5], the target named is T6, hu-IL-7Rγc subunit (human, UniProt P31785 23-262, limits assumed).
T6 construct: also called human Rγc subunit; common γc receptor
T6 sequence (looked up): T3 chain
Nature of the test: not stated; binding to the specific binding site on the IL-7Rγc subunit.

Test [6] deals with T4, hu-IL-7Rα subunit. Nature of the test: phage ELISA competition assay.
Test [7] deals with T6, hu-IL-7Rγc subunit. The experiment in a line: phage ELISA competition assay. In general terms: ELISA stands for enzyme-linked immunosorbent assay.
The target of test [8] is T3, hu-IL-7Rγc subunit (human), P31785.

Like-named read-outs stand apart in the source and are kept apart here. Bridge positions count the residues as written; N and C are the ends. Ends that are not written are not given here.

Take “V V C Q D W E G V E L C W Q (VVCQDWEGVELCWQ) [SEQ ID NO: 261]”: the “competition for binding to the unique binding site on the IL-7Rα subunit with the group of IL-7Rα ligands” value with IL-7Rα subunit is listed as “does not compete”.

For the molecule “SEQ ID NO: 460: An IL-7Rα ligand having the amino acid sequence of SEQ ID NO: 460; sequence not printed in the text (YDCRIAQVGELCDL)”, the “competition for binding to the specific binding site on the IL-7Rγc subunit with the group of Rγc ligands” value with IL-7Rγc subunit is given as “does not compete”.

By IC50 is commonly meant the concentration that gives 50% inhibition. In turn, GGVVCQDWEGVELCWQ (modifications not checked) [SEQ ID NO 326] returned an IC50 in [1] of under 100 µM.

Regarding QCIHWDIETLLSCV (also called IL-7Rα ligand) [SEQ ID NO 455], the half-inhibitory concentration (IC50) in the test with hu-IL-7Rα subunit [2] is under 10 µM.

Regarding VVCQDWEGVELCWQGG (modifications not checked) [SEQ ID NO 325], the half-inhibitory concentration (IC50) in test [1] was under 100 µM.

KVCEMWGGVLLCWN (modifications not checked) [SEQ ID NO 461] came in with a concentration for half-maximal inhibition (IC50) in test [3] of under 10 µM.

Consider YMACSSGLSLCRLS (modifications not checked) [SEQ ID NO 457], for which the IC50 in test [4] was under 10 µM.

In turn, CPSMLQGPERTWVC (also called Rγc ligand) [SEQ ID NO 464] returned an IC50 in the test with hu-IL-7Rγc subunit [5] of under 10 µM.

RTCTEWENVVLCWV (also called Rγc ligand) [SEQ ID NO 462] yielded an IC50 with hu-IL-7Rγc subunit [5] of under 10 µM.

In the case of QCIHWDIETLLSCV (also called IL-7Rα ligand) [SEQ ID NO 107], in the test with hu-IL-7Rα subunit [6], the 50% inhibitory concentration (IC50) is under 10 µM.

VYCAEIGEYRVCRQ (modifications not checked) [SEQ ID NO 456] had an IC50 in test [4] of under 10 µM.

In turn, QCIHWDLESLLNCLRELKEP (also called IL-7Rα ligand) [SEQ ID NO 108] displayed an IC50 with hu-IL-7Rα subunit [6] of under 10 µM.

In the test with hu-IL-7Rα subunit [2], GGVPWCTLDPGSLQCAWF (not fully specified (bridges); cysteine pairing not given here, also called IL-7Rα ligand) [SEQ ID NO 459] had an IC50 of under 10 µM.

Turning to QCVHWDLDTLFGCIREQLEL (also called IL-7Rα ligand) [SEQ ID NO 458], the IC50 in the test with hu-IL-7Rα subunit [2] is under 10 µM.

As for MCWLEWGEWVGSCL (also called Rγc ligand) [SEQ ID NO 463], the IC50 in the test with hu-IL-7Rγc subunit [5] is under 10 µM.

The molecule GGVVCQDWEGVELCWQGG (disulfide 5-14 (inferred), also called Rγc ligand) [SEQ ID NO 327] showed a concentration for half-maximal inhibition (IC50) with hu-IL-7Rγc subunit [7] of under 100 µM.

VVCQDWEGVELCWQ (modifications not checked) [SEQ ID NO 261]: the IC50 in [8] and in test [1] was under 100 µM each time.

The values are drawn from US20240100159A1, “USE OF IL-7R-ALPHA-GAMMA AGONIST PEPTIDES IN CELL MANUFACTURING” (MEDIKINE, INC., priority 2022, published 2024).
